# Residue numbers refer to the chain shown, from its start. In names and notes the source's numbering stands.
# B1: v37683 (trispecific antibody, human IgG1, kappa, L234A L235A)
# heavy 1: not shown
# heavy 2: QVQLVESGGGLVQPGGSLRLSCSVSGIDLSSNPMIWVRQAPGKGLQYIGIIDTDGSTYYADWAKGRFTISKDSTTVYLQINSPRAEDTAVYYCARRLHGSSNGYYDDLWGQGTLVTVSSGGGGSGGGGSGGGGSGGGGSDGQMTQSPSSVSASVGDRVTITCQASQSIYSYLSWYQQKPGQRPKLLIYKASTLASGVPSRFSGSGSGTDFTLTISSVQPEDFATYYCQQGYTVTNVDKNTFGGGTKVEIKAAEPKSSDKTHTCPPCPAPEAAGGPSVFLFPPKPKDTLMISRTPEVTCVVVSVSHEDPEVKFNWYVDGVEVHNAKTKPREEQYNSTYRVVSVLTVLHQDWLNGKEYKCKVSNKALPAPIEKTISKAKGQPREPQVYVLPPSRDELTKNQVSLLCLVKGFYPSDIAVEWESNGQPENNYLTWPPVLDSDGSFFLYSKLTVDKSRWQQGNVFSCSVMHEALHNHYTQKSLSLSPG
# light: DIQMTQSPSSLSASVGDRVTITCRASESVEYYVTSLMQWYQQKPGKAPKLLIYAASNVDSGVPSRFSGSGSGTDFTLTISSLQPEDIATYYCQQSRKVPFTFGGGTKVEIKRTVAAPSVFIFPPSDEQLKSGTASVVCLLNNFYPREAKVQWKVDNALQSGNSQESVTEQDSKDSTYSLSSTLTLSKADYEKHKVYACEVTHQGLSSPVTKSFNRGEC
# notes: also called v37638 format, CD28 VH P1058A
# B2: v37689 (trispecific antibody, human IgG1, kappa, L234A L235A)
# heavy 1: not shown
# heavy 2: B1 heavy 2
# light: B1 light
# notes: also called v37638 format, CD28 VH N1111aA
# B3: v37684 (trispecific antibody, human IgG1, kappa, L234A L235A)
# heavy 1: not shown
# heavy 2: B1 heavy 2
# light: B1 light
# notes: also called v37638 format, CD28 VH G1064S
# B4: v37692 (trispecific antibody, human IgG1, kappa, L234A L235A)
# heavy 1: not shown
# heavy 2: B1 heavy 2
# light: B1 light
# notes: also called v37638 format, CD28 VH Y1113S
# B5: v37687 (trispecific antibody, human IgG1, kappa, L234A L235A)
# heavy 1: not shown
# heavy 2: B1 heavy 2
# light: B1 light
# notes: also called v37638 format, CD28 VH E1080K
# B6: v37686 (trispecific antibody, human IgG1, kappa, L234A L235A)
# heavy 1: not shown
# heavy 2: B1 heavy 2
# light: B1 light with D59E
# notes: also called v37638 format, CD28 VL D1068E
# B7: v37685 (trispecific antibody, human IgG1, kappa, L234A L235A)
# heavy 1: not shown
# heavy 2: B1 heavy 2
# light: B1 light with V33G
# notes: also called v37638 format, CD28 VL V1035G
# B8: v37688 (trispecific antibody, human IgG1, kappa, L234A L235A)
# heavy 1: not shown
# heavy 2: B1 heavy 2
# light: B1 light
# notes: also called v37638 format, CD28 VH Y1110S
# B9: v37691 (trispecific antibody, human IgG1, kappa, L234A L235A)
# heavy 1: not shown
# heavy 2: B1 heavy 2
# light: B1 light
# notes: also called v37638 format, CD28 VH L1112aN
# B10: v37641 (trispecific antibody, human IgG1, kappa, L234A L235A)
# heavy 1: QVQLVESGGGLVQPGGSLRLSCSVSGIDLSSNPMIWVRQAPGKGLQYIGIIDTDGSTYYADWAKGRFTISKDSTTVYLQINSPRAEDTAVYYCARRLHGSSNGYYDDLWGQGTLVTVSSGGGGSGGGGSGGGGSGGGGSDGQMTQSPSSVSASVGDRVTITCQASQSIYSYLSWYQQKPGQRPKLLIYKASTLASGVPSRFSGSGSGTDFTLTISSVQPEDFATYYCQQGYTVTNVDKNTFGGGTKVEIKGGGGSGQVQLQESGPGLVKPSETLSLTCAVSGFSLTSYGVHWIRQPPGKGLEWLGVIWPGGGTNFNSALMSRLTISEDTSKNQVSLKLSSVTAADTAVYYCARDRAYGNYLYAMDYWGQGTLVTVSSASTKGPSVFPLAPSSKSTSGGTAALGCLVKDYFPEPVTVSWNSGALTSGVHTFPAVLQSSGLYSLSSVVTVPSSSLGTQTYICNVNHKPSNTKVDKKVEPKSCDKTHTCPPCPAPEAAGGPSVFLFPPKPKDTLMISRTPEVTCVVVSVSHEDPEVKFNWYVDGVEVHNAKTKPREEQYNSTYRVVSVLTVLHQDWLNGKEYKCKVSNKALPAPIEKTISKAKGQPREPQVYVYPPSRDELTKNQVSLTCLVKGFYPSDIAVEWESNGQPENNYKTTPPVLDSDGSFALVSKLTVDKSRWQQGNVFSCSVMHEALHNHYTQKSLSLSPGGGGGSGNFMLTQPHSVSESPGKTVTISCKRNTGNIGSNYVNWYQQHEGSSPTTIIYRNDKRPDGVSDRFSGSIDRSSKSASLTISNLKTEDEADYFCQSYSSGFIFGGGTKLTVLGGGGSGGGGSGGGGSGGGGSEVQLVESGGGLVQPGGSLRLSCAASGVTFNYYGMSWIRQAPGKGLEWVASITSSGGRIYYPDSVKGRFTISRENTQKTLYLQMNSLRAEDTAVYYCTLDGRDGWVAYWGQGTLVTVSS
# heavy 2: EPKSSDKTHTCPPCPAPEAAGGPSVFLFPPKPKDTLMISRTPEVTCVVVSVSHEDPEVKFNWYVDGVEVHNAKTKPREEQYNSTYRVVSVLTVLHQDWLNGKEYKCKVSNKALPAPIEKTISKAKGQPREPQVYVLPPSRDELTKNQVSLLCLVKGFYPSDIAVEWESNGQPENNYLTWPPVLDSDGSFFLYSKLTVDKSRWQQGNVFSCSVMHEALHNHYTQKSLSLSPG
# light: B1 light
# notes: second heavy chain is Fc only; Het Fc, FcKO; also called Cldn18.2xCD28xCD3 trispecific
# B11: v37639 (trispecific antibody, human IgG1, kappa, L234A L235A)
# heavy 1: not shown
# heavy 2: B1 heavy 2
# light: DIQMTQSPSSLSASVGDRVTITCRASESVEYYVTSLMQWYQQKPGKAPKLLIYAASNVDSGVPSRFSGSGSGTDFTLTISSLQPEDIATYYCQQSRKVPFTFGGGTKVEIKRTVAAPSVFIFPPSDEQLKSGTASVVCLLNNFYPREAKVQWKVDNALQSGNSQESVTEQDSKDSTYSLSSTLTLSKADYEKHKVYACEVTHQGLSSPVTKSFNRGECGGGGSGNFMLTQPHSVSESPGKTVTISCKRNTGNIGSNYVNWYQQHEGSSPTTIIYRNDKRPDGVSDRFSGSIDRSSKSASLTISNLKTEDEADYFCQSYSSGFIFGGGTKLTVLGGGGSGGGGSGGGGSGGGGSEVQLVESGGGLVQPGGSLRLSCAASGVTFNYYGMSWIRQAPGKGLEWVASITSSGGRIYYPDSVKGRFTISRENTQKTLYLQMNSLRAEDTAVYYCTLDGRDGWVAYWGQGTLVTVSS
# notes: Het Fc, FcKO; also called Cldn18.2xCD28xCD3 trispecific
# Target: T1, CD28 on primary human T cells (human, UniProt P10747 19-220)
# Assay: cell-based or functional assay
Binder,"IC50, T cell-dependent cytotoxicity on SNU 601 [pM]","Maximum Killing (%), SNU 601 [%]"
B1,0.25,88.6
B2,0.12,93.4
B3,0.34,89.3
B4,0.63,91.5
B5,0.1,88.5
B6,0.09,88.5
B7,0.81,88.7
B8,0.18,87.8
B9,0.08,91

# Target: T1, CD28 on primary human T cells
# Assay: cell-based or functional assay
# Remark: another data set of the same source
Binder,"IL-2 maximum cytokine, T cells alone [pg/mL]","IL-2 maximum cytokine, T cells with SNU 601 cells [pg/mL]","TNFa maximum cytokine, T cells alone [pg/mL]","TNFa maximum cytokine, T cells with SNU 601 cells [pg/mL]"
B1,82.9,4030,25,513
B2,677,3210,58.9,543
B3,293,3430,56.2,516
B4,120,2890,20.2,476
B5,170,4140,21.7,412
B6,388,4180,41,613
B7,190,3400,25,409
B8,279,3780,39.6,514
B9,185,3360,33.6,473

# Target: T2, Recombinant human/cynomolgus/rhesus macaque CD28 mouse IgG2a Fc fusion protein (Acro Biosystems) (human/cynomolgus/rhesus macaque, UniProt P10747 19-152)
# T2 construct: bought; also called huCD28
# Assay: SPR, in-format anti-CD28 variants, huCD28
Binder,Fold-change from WT [fold],Kd [nM],koff [s⁻¹],kon [M⁻¹ s⁻¹]
B1,2.2,48.6,0.00466,95800
B2,10.8,239,0.0211,89600
B3,6.4,143,0.0113,80600
B4,95.1,2110,0.0613,32200
B5,2.1,47,0.00475,101000
B6,1.3,28.1,0.00252,89300
B7,28.4,631,0.029,67900
B8,1.2,25.8,0.00253,97300
B9,4.9,109,0.0107,98600

# Target: T3, Recombinant human CD3 epsilon/delta heterodimer, his tag protein (Acro Biosystems) (human, UniProt P07766 23-126; P04234 22-105)
# T3 construct: bought
# Assay: SPR Biacore T200, CD3 e/d-his on CM5, construct injected, 1:1 model;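 note: measured at 25 °C in HEPES-buffered saline with EDTA and Tween 20 at pH 7.4, values are means of three independent runs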
Binder,Kd [nM],koff [s⁻¹],kon [M⁻¹ s⁻¹]
B10,225,0.0134,60800
B11,492,0.0144,29200

# Target: T2, Recombinant human/cynomolgus/rhesus …
# Assay: SPR Biacore T200, CD28-mIgG2a Fc on CM5, construct injected, 1:1 model;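 note: fc fusion captured by amine coupling, run at 25 °C in HEPES buffer pH 7.4, association 140-500 s then dissociation 600-1200 s, values averaged over three independent runs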
# Method: All SPR binding experiments were carried out using a BiacoreT200 instrument at 25° C. with 10 mM HEPES, 150 mM NaCl, 3 mM EDTA, and 0.05% Tween 20 at pH 7.4. Recombinant human/cynomolgus/rhesus macaque CD28 mouse IgG2a Fc fusion protein (Acro Biosystems) was covalently immobilized on CM5 sensor chips by amine coupling. Purified antibody constructs to be tested were injected on the sensor chip at 30 μL/min for 140-500 s following a dissociation for 600-1200 s. Resultant kₒₙ, koff and KD values were determined from fitting the sensorgrams using the 1:1 binding model with reported values as the mean of three independent runs.
Binder,Kd [nM],koff [s⁻¹],kon [M⁻¹ s⁻¹]
B10,31.8,0.00206,66500
B11,23.9,0.00201,84100
